{
  "source": "IntAct's records for PubMed 18063693",
  "parents": {"B1": {"name": "Steroid hormone receptor ERR1 (Homo sapiens), P11474 (parent)", "chain": "MSSQVVGIEPLYIKAEPASPDSPKGSSETETEPPVALAPGPAPTRCLPGHKEEEDGEGAGPGEQGGGKLVLSSLPKRLCLVCGDVASGYHYGVASCEACKAFFKRTIQGSIEYSCPASNECEITKRRRKACQACRFTKCLRVGMLKEGVRLDRVRGGRQKYKRRPEVDPLPFPGPFPAGPLAVAGGPRKTAAPVNALVSHLLVVEPEKLYAMPDPAGPDGHLPAVATLCDLFDREIVVTISWAKSIPGFSSLSLSDQMSVLQSVWMEVLVLGVAQRSLPLQDELAFAEDLVLDEEGARAAGLGELGAALLQLVRRLQALRLEREEYVLLKALALANSDSVHIEDAEAVEQLREALHEALLEYEAGRAGPGGGAERRRAGRLLLTLPLLRQTAGKVLAHFYGVKLEGKVPMHKLFLEMLEAMMD", "partner": "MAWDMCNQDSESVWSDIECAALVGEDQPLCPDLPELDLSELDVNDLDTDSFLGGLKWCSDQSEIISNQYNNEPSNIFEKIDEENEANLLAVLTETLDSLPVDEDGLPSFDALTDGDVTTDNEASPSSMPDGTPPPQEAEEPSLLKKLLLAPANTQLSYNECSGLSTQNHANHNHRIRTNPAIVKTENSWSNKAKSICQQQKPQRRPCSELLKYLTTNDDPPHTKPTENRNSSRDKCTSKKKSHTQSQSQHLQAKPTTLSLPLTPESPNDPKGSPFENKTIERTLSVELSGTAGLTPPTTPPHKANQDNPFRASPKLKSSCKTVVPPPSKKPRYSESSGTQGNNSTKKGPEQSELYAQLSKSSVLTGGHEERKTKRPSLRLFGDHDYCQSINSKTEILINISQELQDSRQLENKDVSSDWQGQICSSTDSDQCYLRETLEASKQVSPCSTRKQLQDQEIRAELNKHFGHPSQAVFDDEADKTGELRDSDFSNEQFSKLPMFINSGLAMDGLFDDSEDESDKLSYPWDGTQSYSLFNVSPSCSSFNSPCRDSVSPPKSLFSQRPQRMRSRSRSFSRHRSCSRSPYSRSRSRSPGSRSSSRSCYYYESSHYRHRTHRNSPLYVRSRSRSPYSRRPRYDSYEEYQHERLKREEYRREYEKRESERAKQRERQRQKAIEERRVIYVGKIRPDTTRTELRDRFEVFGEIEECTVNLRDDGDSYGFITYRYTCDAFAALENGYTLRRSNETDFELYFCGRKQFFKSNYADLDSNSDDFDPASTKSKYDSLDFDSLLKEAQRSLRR"}, "B2": {"name": "Estrogen-related receptor gamma (Homo sapiens), P62508 (parent)", "chain": "MDSVELCLPESFSLHYEEELLCRMSNKDRHIDSSCSSFIKTEPSSPASLTDSVNHHSPGGSSDASGSYSSTMNGHQNGLDSPPLYPSAPILGGSGPVRKLYDDCSSTIVEDPQTKCEYMLNSMPKRLCLVCGDIASGYHYGVASCEACKAFFKRTIQGNIEYSCPATNECEITKRRRKSCQACRFMKCLKVGMLKEGVRLDRVRGGRQKYKRRIDAENSPYLNPQLVQPAKKPYNKIVSHLLVAEPEKIYAMPDPTVPDSDIKALTTLCDLADRELVVIIGWAKHIPGFSTLSLADQMSLLQSAWMEILILGVVYRSLSFEDELVYADDYIMDEDQSKLAGLLDLNNAILQLVKKYKSMKLEKEEFVTLKAIALANSDSMHIEDVEAVQKLQDVLHEALQDYEAGQHMEDPRRAGKMLMTLPLLRQTSTKAVQHFYNIKLEGKVPMHKLFLEMLEAKV", "partner": "B1 partner"}, "B3": {"name": "Steroid hormone receptor ERR1 (Homo sapiens), P11474 (parent)", "chain": "B1 chain"}},
  "data": [
    {"variants_of": "B1", "settings": "with prgc1_human PPARGC1A", "values": [
      {"variant": "MSSQVVGIEPLYIRAEPASPDSPKGSSETETEPPVALAPGPAPTRCLPGHKEEEDGEGAGPGEQGGGKLVLSSLPKRLCLVCGDVASGYHYGVASCEACKAFFKRTIQGSIEYSCPASNECEITKRRRKACQACRFTKCLRVGMLKEGVRLDRVRGGRQKYKRRPEVDPLPFPGPFPAGPLAVAGGPRKTAAPVNALVSHLLVVEPEKLYAMPDPAGPDGHLPAVATLCDLFDREIVVTISWAKSIPGFSSLSLSDQMSVLQSVWMEVLVLGVAQRSLPLQDELAFAEDLVLDEEGARAAGLGELGAALLQLVRRLQALRLEREEYVLLKALALANSDSVHIEDAEAVEQLREALHEALLEYEAGRAGPGGGAERRRAGRLLLTLPLLRQTAGKVLAHFYGVKLEGKVPMHKLFLEMLEAMMD", "note": "[K14R]", "effect of a mutation on the interaction": "with no effect"}
    ]},
    {"variants_of": "B2", "settings": "with prgc1_human PPARGC1A", "values": [
      {"variant": "MDSVELCLPESFSLHYEEELLCRMSNKDRHIDSSCSSFIRTEPSSPASLTDSVNHHSPGGSSDASGSYSSTMNGHQNGLDSPPLYPSAPILGGSGPVRKLYDDCSSTIVEDPQTKCEYMLNSMPKRLCLVCGDIASGYHYGVASCEACKAFFKRTIQGNIEYSCPATNECEITKRRRKSCQACRFMKCLKVGMLKEGVRLDRVRGGRQKYKRRIDAENSPYLNPQLVQPAKKPYNKIVSHLLVAEPEKIYAMPDPTVPDSDIKALTTLCDLADRELVVIIGWAKHIPGFSTLSLADQMSLLQSAWMEILILGVVYRSLSFEDELVYADDYIMDEDQSKLAGLLDLNNAILQLVKKYKSMKLEKEEFVTLKAIALANSDSMHIEDVEAVQKLQDVLHEALQDYEAGQHMEDPRRAGKMLMTLPLLRQTSTKAVQHFYNIKLEGKVPMHKLFLEMLEAKV", "note": "[K40R]", "effect of a mutation on the interaction": "with no effect"}
    ]},
    {"variants_of": "B3", "settings": "with sumo3_human SUMO3, P55854", "values": [
      {"variant": "MSSQVVGIEPLYIRAEPASPDSPKGSSETETEPPVALAPGPAPTRCLPGHKEEEDGEGAGPGEQGGGKLVLSSLPKRLCLVCGDVASGYHYGVASCEACKAFFKRTIQGSIEYSCPASNECEITKRRRKACQACRFTKCLRVGMLKEGVRLDRVRGGRQKYKRRPEVDPLPFPGPFPAGPLAVAGGPRKTAAPVNALVSHLLVVEPEKLYAMPDPAGPDGHLPAVATLCDLFDREIVVTISWAKSIPGFSSLSLSDQMSVLQSVWMEVLVLGVAQRSLPLQDELAFAEDLVLDEEGARAAGLGELGAALLQLVRRLQALRLEREEYVLLKALALANSDSVHIEDAEAVEQLREALHEALLEYEAGRAGPGGGAERRRAGRLLLTLPLLRQTAGKVLAHFYGVKLEGKVPMHKLFLEMLEAMMD", "note": "[K14R]", "effect of a mutation on the interaction": "with no effect"}
    ]}
  ]
}
